US6110707

Columns and labels:
[1] = biological target: human preproinsulin (human); conditions: scale: % of intracellular human insulin species left as proinsulin and intermediates
[2] = biological target: human preproglucagon (human)
[3] = biological target: mutated human preproglucagon (arginine to alanine at amino acid residue 52) (human)

Substance	HPLC separation of intracellular immunoreactive insulin species (processing of human proinsulin to mature insulin in engineered RIN cells) [1]	NON (% TOTAL): non-amidated GLP-1 as percentage of total GLP-1 (non-amidated and amidated), by two specific immunoassays (% non-amidated of total GLP-1) [2]	NON (% TOTAL): non-amidated GLP-1 as percentage of total GLP-1 (non-amidated and amidated), by two specific immunoassays (% non-amidated of total GLP-1) [3]
PC3 (from UniProt P28840) (enzyme)	8	–	–
peptidylglycine alpha-amidating monooxygenase (PAM) (from UniProt P14925) (enzyme)	–	49	59
PC2 (from UniProt P28841) (enzyme)	8	–	–
